Assay results from PMC7714071, “Interaction of amyloid beta with humanin and acetylcholinesterase is modulated by ATP” (FEBS Open Bio, 2020).

Tested on: H1299 cells
Experiment: MTT cell viability, H1299
Assay type: cell-based, human
Details: AChE-ID media, 48 h, H1299; Fig. 7B
Description: Human NSCLC cell lines, A549 (ATCC CCL‐185) and H1299 (ATCC CRL‐5803), were purchased from the American Type Culture Collection (ATCC, Manassas, VA, USA). Cells were seeded as we reported earlier in 5 mL HyClone Dulbecco's modified Eagle's medium/nutrient mixture F‐12 (DMEM/F12) (GE Healthcare Life Sciences, Pittsburgh, PA, USA), supplemented with 10% Fetalgro bovine growth serum (FBS; RMBIO, Missoula, MT, USA), 50 U·mL^−1 penicillin, and […] streptomycin (Invitrogen, Life Technologies, Carlsbad, CA, USA) in 25‐cm^2 tissue culture flasks, and allowed to grow overnight in an incubator at 37 °C, 95% humidity, and 5% CO2. The cells were counted after trypan blue staining, with a hemocytometer.
The 3‐(4,5‐dimethylthiazol‐2‐yl)‐2,5‐diphenyl‐tetrazolium bromide (MTT) reduction assay (Sigma‐Aldrich), used to measure cell viability, was carried out as we reported earlier. […] The absorbance was measured at 570 nm in a plate reader. […]
Conditioned media were immunodepleted (ID) according to the methods previously described and our recently published report. […] The ID media were then carefully removed and analyzed for the presence of the target protein or peptide by ELISA. The same amount of protein (3 µL of 600 µg·mL^−1 total protein) of each sample was analyzed in the experiments. […]

B1: acetylcholinesterase (protein)
chain: EGREDAELLVTVRGGRLRGIRLKTPGGPVSAFLGIPFAEPPMGPRRFLPPEPKQPWSGVVDATTFQSVCYQYVDTLYPGFEGTEMWNPNRELSEDCLYLNVWTPYPRPTSPTPVLVWIYGGGFYSGASSLDVYDGRFLVQAERTVLVSMNYRVGAFGFLALPGSREAPGNVGLLDQRLALQWVQENVAAFGGDPTSVTLFGESAGAASVGMHLLSPPSRGLFHRAVLQSGAPNGPWATVGMGEARRRATQLAHLVGCPPGGTGGNDTELVACLRTRPAQVLVNHEWHVLPQESVFRFSFVPVVDGDFLSDTPEALINAGDFHGLQVLVGVVKDEGSYFLVYGAPGFSKDNESLISRAEFLAGVRVGVPQVSDLAAEAVVLHYTDWLHPEDPARLREALSDVVGDHNVVCPVAQLAGRLAAQGARVYAYVFEHRASTLSWPLWMGVPHGYEIEFIFGIPLDPSRNYTAEEKIFAQRLMRYWANFARTGDPNEPRDPKAPQWPPYTAGAQQYVSLDLRPLEVRRGLRAQACAFWNRFLPKLLSATDTLDEAERQWKAEFHRWSSYMVHWKNQFDHYSKQDRCSDL
- effect of AChE immunodepletion on cell viability: no effect
